Measurements from article PMC7036035.

Key:
[1] = test system: C[C@H](CCC(=O)NCCS(=O)(=O)O)[C@H]1CC[C@H]2[C@@H]3[C@@H](O)C[C@@H]4C[C@H](O)CC[C@]4(C)[C@H]3CC[C@]12C; test: purified protein; details: pH 7.5; 37.0 °C
[2] = test system: C[C@H](CCC(=O)NCCS(=O)(=O)O)[C@H]1CC[C@H]2[C@@H]3CC[C@@H]4C[C@H](O)CC[C@]4(C)[C@H]3C[C@H](O)[C@]12C; test: purified protein; details: pH 7.5; 37.0 °C

Substance: B. theta BSH (BT_2086) (Bacteroides thetaiotaomicron VPI-5482)
- Km [1]: 8.2 mM
- kcat [1]: 0.255 ± 0.0133 s⁻¹
- kcat/Km [1]: 31.7 ± 5 M⁻¹ s⁻¹
- Km [2]: 3.4 mM
- kcat [2]: 0.215 ± 0.01 s⁻¹
- kcat/Km [2]: 63.3 ± 11.7 M⁻¹ s⁻¹
